Source: paper doi:10.1101/2020.10.20.346569 (bioRxiv, 2020)
Read-outs that look alike come from different tables or passages of the source.

Legend:
GST-GSK3β [1] = biological target: T1, GST-GSK3β (UniProt P49841 1-420); assay: pull-down
GST-GSK3β [2] = biological target: T1, GST-GSK3β; assay: pull-down; remark: listed apart in the source

T1 sequence (P49841 whole entry): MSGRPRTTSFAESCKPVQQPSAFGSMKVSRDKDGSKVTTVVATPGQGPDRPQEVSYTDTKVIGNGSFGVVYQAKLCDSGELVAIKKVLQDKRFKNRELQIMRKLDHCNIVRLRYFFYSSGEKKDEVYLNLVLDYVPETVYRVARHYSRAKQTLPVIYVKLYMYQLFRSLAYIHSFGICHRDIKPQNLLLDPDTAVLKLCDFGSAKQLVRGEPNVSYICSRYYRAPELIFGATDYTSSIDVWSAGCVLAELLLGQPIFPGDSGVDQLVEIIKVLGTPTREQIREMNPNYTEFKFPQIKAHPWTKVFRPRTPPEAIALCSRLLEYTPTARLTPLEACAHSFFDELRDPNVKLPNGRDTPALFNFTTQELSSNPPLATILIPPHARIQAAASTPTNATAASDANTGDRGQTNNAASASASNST

| binding result (GST-GSK3β [1]) | binding result (GST-GSK3β [2]) | Binder |
| --- | --- | --- |
| binds | – | His-eIF4E2 (natural protein, UniProt O60573 1-245, looked up) MNNKFDALKDDDSGDHDQNEENSTQKDGEKEKTERDKNQSSSKRKAVVPGPAEHPLQYNYTFWYSRRTPGRPTSSQSYEQNIKQIGTFASVEQFWRFYSHMVRPGDLTGHSDFHLFKEGIKPMWEDDANKNGGKWIIRLRKGLASRCWENLILAMLGEQFMVGEEICGAVVSVRFQEDIISIWNKTASDQATTARIRDTLRRVLNLPPNTIMEYKTHTDSIKMPGRLGPQRLLFQNLWKPRLNVP |
| – | binds | RLLFQNLWKPRL [peptide e2-I] |
